The source of these data is the nanobody polyreactivity screen of Harvey et al. (2022).

This series can be described thus: yeast display, Sf9 membrane polyspecificity reagent, FACS + sequencing; frameworks hold sequencing errors. The gist of the method: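 A nanobody's polyreactivity label depends on the gate it was sorted from. Yeast display cells were stained with 10% biotinylated, detergent-solubilized Sf9 membrane reagent for 1 hour at 4 °C, enriched on streptavidin microbeads and sorted by FACS. The low and high (top ~1%) gates were set on anti-HA fluorescence for expression and streptavidin fluorescence for reagent binding.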
Take “QVQLVESGGGLVQAGGSLRLSCAASGITFYGYAMGWYRQAPGKERELVARISSGGTTKYADSVKGRFTISRDNAKNTVYLQMNSLKPEDTAGYYCAVGGSWWYYGFYYWGQGTQVSVSS”: the “polyreactivity (PSR sort gate)” value is given as “high polyreactivity”.

Turning to “QVQLVESGGGLVQAGGSLRLSCAASGITFYIYAMGWYRQAPGKERELVAAITWGGDGSTRYADSVKGRFTISRDNAKNTVYLQMNSLKPEDTAVYYCAGGSTFVLFDDMDYWGQGTQVTVSS”, the “polyreactivity (PSR sort gate)” value is “low polyreactivity”.

For “QVQLVESGGGLVQAGGSLRLSCAASGITFYIYAMGWYRQAPGKERELVATISWSDGRTYYADSVKGRITISRDNAKNTVYLQMNSLKPEDTAVYYCAADWWYYQFDYEYWGQGTQVTVSS”, the “polyreactivity (PSR sort gate)” value was “low polyreactivity”.

Regarding “QVQLVESGGGLVQAGGSLRLSCAASGITFYLNAMGWYRQAPGKERELVADITVSGGSTYYADSVKGRFTISRDTAKNTVYLQMNSLIPEDTAVYYCAADLTISYSQEYYYWGQGTQVTVSS”, the “polyreactivity (PSR sort gate)” value is “low polyreactivity”.

As for “QVQLVESGGGLVQAGGSLRLSCAASGITFYLYAMGWYRQAPGKERELVAAISRIGGSTYYADSVKGRFTISRDNAKNTVYLQMNSLKPEDTAVYYCATYYGGSGYDYWGQGTQVTVSS”, the “polyreactivity (PSR sort gate)” value is on record as “high polyreactivity”.

As for “QVQLVESGGGLVQAGGSLRLSCAASGITFYLYDMGWYRQAPGIERELVASITSDGSTDYADSVKGRFTISRDNAKNTVYLQMNSLKPEDTAVYYCNARVTYSWYRFGRSGDDSWGHGTQVTVSS”, the “polyreactivity (PSR sort gate)” value was “low polyreactivity”.

As for “QVQLVESGGGLVQAGGSLRLSCAASGITFYNSAMGLYRQAPGKERELVAAISSSGGSTYYADSVKGRFTISRDNAKNTVYLQMNSLKPEDTAVYYCAAVIVLSSEDTYYYWGQGTQVTVSS”, the “polyreactivity (PSR sort gate)” value was “high polyreactivity”.

For “QVQLVESGGGLVQAGGSLRLSCAASGITFYPNGMGWYRQAPGKEREFVAAITSSGGSTYYADSVKGRFRISRDNAKNTLYLQMNSLKPEDTAVYYCAAQYYPISYYGYGYWGQGTQVTVSS”, the “polyreactivity (PSR sort gate)” value is reported as “low polyreactivity”.

In the case of “QVQLVESGGGLVQAGGSLRLSCAASGITFYQYALGWYRQAPGKERELVARISYSGGSTYADSVKGRFTISRDNAKNTVYLQMNSLKPEDTAVYYCATAYRFRYGFANRYDYWGQGTQVTVSS”, the “polyreactivity (PSR sort gate)” value is reported as “low polyreactivity”.

“QVQLVESGGGLVQAGGSLRLSCAASGITFYRYAMGWYRPAPGKERELVAAISSSGGSTYYADSVKGRFTISRDNAKNSVYLQMNRLKPEDTAVYYCNAVVQNPQEYDYWGQGTQVTVSS”: the “polyreactivity (PSR sort gate)” value is reported as “high polyreactivity”.

For the sequence “QVQLVESGGGLVQAGGSLRLSCAASGITFYRYAMGWYRQAPGKERELVAAISKRGGTTYYADSVKGRFTISRDNAKNTVYLQMNSLKPEDTAVYYCNKAKTAYRGQYDYWGQGTQVTVSS”, the “polyreactivity (PSR sort gate)” value is recorded as “high polyreactivity”.

On to “QVQLVESGGGLVQAGGSLRLSCAASGITFYRYAMGWYRQAPGKERELVAAITSGGGRTYYADSVKGRFTISRDNAKNTVYLQMNSLKPEDTAVYYCNAADYTAYGQGEYWGQGTQVTVSS”, for which the “polyreactivity (PSR sort gate)” value is listed as “high polyreactivity”.

For “QVQLVESGGGLVQAGGSLRLSCAASGITFYRYAVGWYRQAPGKERELVAAISCRGGRTYYADSVKGRFTISRDNAKKTVYLQMISLKPEDTAVDYCAAVASRIRGWLDITAYDYWGQGTQVTVSS”, the “polyreactivity (PSR sort gate)” value is given as “high polyreactivity”.

Consider “QVQLVESGGGLVQAGGSLRLSCAASGITFYRYMGWYRQAPGKERELVASITGRGGSTYYADSVKGRFTISRDNAKNTVYLQMNSLKPEDTAVYYCAAVFPTKSSTWYDYWGQGSQVTVSS”, for which the “polyreactivity (PSR sort gate)” value is on record as “high polyreactivity”.

In the case of “QVQLVESGGGLVQAGGSLRLSCAASGITFYRYVMGWYRQAPGKERELVAAISDSTGSTYYADSVKGRFTISRDNAKNTVYLQMNSLKPEDTAVYYCAAGWFYATYWRFYYWGQGTQVTVSS”, the “polyreactivity (PSR sort gate)” value is on record as “low polyreactivity”.

“QVQLVESGGGLVQAGGSLRLSCAASGITFYTYAMGWYRQAPGKERELDAAITCSGGRTYYADSVKGRFTISRDNAKNSVYLQMNSLKPEDTAVYYCAALYVYRPRTPYGYWGQGTQVNVSS”: the “polyreactivity (PSR sort gate)” value is listed as “high polyreactivity”.

As to “QVQLVESGGGLVQAGGSLRLSCAASGITFYVYAMGWYRQAPGKERELVAAISRRGGSTSYADSVKGRFTISRDNAKNTVYLQMNSLKPEDTAVYYCAAGPFYGGIVRRYDYWGQGTQVTVSS”, the “polyreactivity (PSR sort gate)” value was “low polyreactivity”.

Take “QVQLVESGGGLVQAGGSLRLSCAASGITFYYNAMGWYRQAPGKERELVAAIRSAGSTYYADSVKGRFTISRDNAKNTVYLQMNSLKPEDTAVYYCAAEDGNTDQVRVYWIMDYWGQGTQVTVSS”: the “polyreactivity (PSR sort gate)” value was “low polyreactivity”.

Regarding “QVQLVESGGGLVQAGGSLRLSCAASGITFYYTMGWYRQAPGKERELVATISYDGTSTYYADSVKGRFTISRHNEKNTVYLHMNSLKPEDTAVYYSSAYGTVVTLNDYWGQGTQVTVSS”, the “polyreactivity (PSR sort gate)” value was “low polyreactivity”.

In the case of “QVQLVESGGGLVQAGGSLRLSCAASGITFYYYAKGWYRQAPGKEREFVAAINWSGTSTYYADSVKGRFTISRDNAKNTVYLQMNSLKPEDTAVYYCNAERGRSFWWAYDYWGQGTQVTVSS”, the “polyreactivity (PSR sort gate)” value is “low polyreactivity”.

Consider “QVQLVESGGGLVQAGGSLRLSCAASGITFYYYAMGWYRQAPGKERELVAAINSGGITNYADSVKGRFTISRDNAKNTVYLQMNSLKPEDTAVYYCAASSGFRYRYGYWGQGTQVTVSS”, for which the “polyreactivity (PSR sort gate)” value is “high polyreactivity”.

On to “QVQLVESGGGLVQAGGSLRLSCAASGITFYYYAMGWYRQAPGKERELVAAISFRGGSTYYADSVKGRFTISRDNAKNTVYLQMNSLIPEDTAVYYCAAETSPSWYTWVTYDYWGQGTQVTVSS”, for which the “polyreactivity (PSR sort gate)” value is listed as “high polyreactivity”.

As for “QVQLVESGGGLVQAGGSLRLSCAASGITFYYYAMGWYRQAPGKERELVAAISFRGGSTYYADSVKGRFTISRDNAKNTVYLQMNSLKPEDTAVYYCAKAWSYTDPPRGDYWGQGTQVTVSS”, the “polyreactivity (PSR sort gate)” value is on record as “high polyreactivity”.

As for “QVQLVESGGGLVQAGGSLRLSCAASGITFYYYAMGWYRQAPGKERELVAAITVNGGTTYYADSVKGRFTISRDNAKNTVYLQMNSLKPEDTAVYYCNADGTFEYDYWGQGTQVTVSS”, the “polyreactivity (PSR sort gate)” value is “low polyreactivity”.

Regarding “QVQLVESGGGLVQAGGSLRLSCAASGITFYYYAMRWYRQAPGKERELVAAISRGGSTYYADSVKGRFTISCDNAKNTVYLQMNSLKPEDTAVYYCNAYTTGYLFGYWGQGTQVTVSS”, the “polyreactivity (PSR sort gate)” value is recorded as “high polyreactivity”.

For “QVQLVESGGGLVQAGGSLRLSCAASGITFYYYGMGWYRQAPGKERELVAAITTGGNTNYADSVKGRFTISRDNAKNTVYLQMNSLKPEDTAVYYCAAEYRIPYFFTYGYWGQGTQVTVSS”, the “polyreactivity (PSR sort gate)” value is “high polyreactivity”.

“QVQLVESGGGLVQAGGSLRLSCAASGITIDYYAMGWYRQAPGKERELVAAISSVGNTNYADSVKGRFTISRDNAKNTVYLQMNSLKPEDTAVYYCAARAYGQRLYRVWSGYGYWGQGTQVTVSS”: the “polyreactivity (PSR sort gate)” value is “high polyreactivity”.

Turning to “QVQLVESGGGLVQAGGSLRLSCAASGITIIHNAMGWYRQAPGKERELVAAITTSDGSTYYADSVKGRFTISRDNAKNTVYLQMNSLKPEDTAVYYCAARGRHSGYYSFPYYYWGQGTQVTVSS”, the “polyreactivity (PSR sort gate)” value was “low polyreactivity”.

Consider “QVQLVESGGGLVQAGGSLRLSCAASGITIVLYAMGWYRQAPGKERELVAAINIDGNTNYADSVKGRFTISRDNAKNTVYLQMNSLKPEDTAVYYCATYYYYPSWYLLYGEYNYWGQGTQVTVSS”, for which the “polyreactivity (PSR sort gate)” value is “low polyreactivity”.

Take “QVQLVESGGGLVQAGGSLRLSCAASGITIYKYAMGWYRQAPGKERELVAAITRGGSTYYADSVKGRFTISRDNAKNSVYLQMNSLKPEDTAVYYCNKVYHWQTPGFGYGYWGQGTQVTVSS”: the “polyreactivity (PSR sort gate)” value was “high polyreactivity”.

For “QVQLVESGGGLVQAGGSLRLSCAASGITLEVYAMGWYRQAPGKERELVAAITDSGGRTYYADSVKGRFTISRDNAKNTVYLQMNSLKPEDTAVYYCAADDTRVYGAGEYWGQGTQVTVSS”, the “polyreactivity (PSR sort gate)” value was “low polyreactivity”.

Turning to “QVQLVESGGGLVQAGGSLRLSCAASGITLGYYAMGWYRQAPGKERELVAAISYRGGNTYYADSVKGRFTISRDNAMKTVYLQMNSLKPEDSAVYYCAAYDEYYGYDYWGQGTQVTVSS”, the “polyreactivity (PSR sort gate)” value is “low polyreactivity”.

For the sequence “QVQLVESGGGLVQAGGSLRLSCAASGITLKKYAMVWYRQAPGKERELVAAISIRGTSTYYADSVKGRFTISRDNAKNSVFLQMNSLKPEDTAVYYFAALYVVGDVRSGYWGQCTQVTVSS”, the “polyreactivity (PSR sort gate)” value was “high polyreactivity”.

On to “QVQLVESGGGLVQAGGSLRLSCAASGITLLGNTMGWYRQAPGKERELVAAIRTNSGRTYYADSVKGRFTISRDNAKNTVYLQMNSLKPEDTAVYYCAKRYFSYLGREMDYWGQGTQVTVSS”, for which the “polyreactivity (PSR sort gate)” value is given as “high polyreactivity”.

On to “QVQLVESGGGLVQAGGSLRLSCAASGITLLYYAMGWYRQAPGKERELVAVIDWSGGDTYYADSVKGRFTISRDNAKNTVYLQMNSLKPEDTAVYYCARGSRLVYRRSGFDYWGQGTQVTVSS”, for which the “polyreactivity (PSR sort gate)” value was “low polyreactivity”.

As for “QVQLVESGGGLVQAGGSLRLSCAASGITLNGYVMRWYRQAPGKEREFVAVISSRGGSTYYADSVKGRFTISRDNAKNTVYLQMNSLKPEDTAVYYCAARYVREYNYWGQGTQVTVSS”, the “polyreactivity (PSR sort gate)” value is “high polyreactivity”.

As to “QVQLVESGGGLVQAGGSLRLSCAASGITLNRNAMGWYRQAPGKERELVARISRRGGTTYYADSVKGRFTISRDNAKNTVYLQMNSLKPEDTAVYYCNAGPYGGNPFDYWGQGTQVTVSS”, the “polyreactivity (PSR sort gate)” value is listed as “high polyreactivity”.

“QVQLVESGGGLVQAGGSLRLSCAASGITLPVYGMGWYRQAPGKERELVAVIDIVGITNYADSVKGRFTISRDNAKNTVYLQMNSLKPEDTAVYYCAKRYVDLADGGEYYYWGQGTQVTVSS”: the “polyreactivity (PSR sort gate)” value was “low polyreactivity”.

For the sequence “QVQLVESGGGLVQAGGSLRLSCAASGITLRRNAMGWYRQAPGKERELVAAISKSGGRTYYADSVKGRFTISRDHAKNTVYLQMNSLKPEDTAVYYCAADVPWAASDYWGQGTQVTVSS”, the “polyreactivity (PSR sort gate)” value was “high polyreactivity”.

In the case of “QVQLVESGGGLVQAGGSLRLSCAASGITLRYYTMGWYRQPPGKERELVADISYRGGSTTYADSVKGRFTISRDNAKNTVYLQMNSLKPEDTAVYYCNARKRTFPSRSIGGDYWGQGTQVTVSS”, the “polyreactivity (PSR sort gate)” value was “high polyreactivity”.

As to “QVQLVESGGGLVQAGGSLRLSCAASGITLSIYAMGWYRQAPGKERELVAAINGNGGSTYYADSVKGRFTISRDNAKNTVYLQMNSLKPEDTAVYYCAVTDYVYEHDDYWGQGTQVTVSS”, the “polyreactivity (PSR sort gate)” value is given as “low polyreactivity”.
